Test results as given in patent US20240000961A1, “ANTIBODY-BASED CONJUGATE FOR ENHANCING THERAPEUTIC EFFECT OF TARGETED THERAPEUTIC AGENT” (THE CATHOLIC UNIVERSITY OF KOREA INDUSTRY-ACADEMIC …, priority 2020, published 2024).

Assays:
[1] = tested on: L929 normal cells; assay type: cell-based; settings: for cytotoxicity: L929 normal cells, MTT, treated 4 hours then cultured 1 day; for toxicity: L929, at a concentration less than 10 μl/ml
Experimental: (§3) Thereafter, the cells were washed with a buffer solution, and further cultured for 1 day by adding a clean medium thereto.
(§4) The cultured cells were treated with MTT reagent and further cultured for 3 hours, then the culture solution and the MTT reagent were both removed, and dimethyl sulfoxide was added to dissolve formazan formed in the cells. Thereafter, absorbance was measured at 570 nm to compare the amounts of formazan formed and analyze the viability and cytotoxicity of cancer cells.

[2] = tested on: NIH3T3 normal cells; assay type: cell-based; settings: for cytotoxicity: NIH3T3 normal cells, MTT, treated 4 hours then cultured 1 day; for toxicity: NIH3T3, at a concentration less than 10 μl/ml
Experimental: as §3, §4

[3] = tested on: A549 lung cancer cell line expressing PD-L1; assay type: cell-based
Experimental: (§1) Thereafter, the viability and cytotoxicity of cells were analyzed in the same manner as in Experimental Example 2-1.
(§2) Lung cancer and colorectal cancer cell lines expressing PD-L1 (A549 and HCT116, respectively) were cultured, and then treated with an avelumab-succinyl-Pluronic conjugate. Thereafter, the viability and cytotoxicity of cells were analyzed in the same manner as in Experimental Example 2-1.

[4] = tested on: HCT116 (HCTE116) colorectal cancer cell line expressing PD-L1; assay type: cell-based
Experimental: as §1, §2

[5] = tested on: SKOV3 cells, ovarian cell line expressing the EGFR
Experimental: as §3, §4

[6] = tested on: NIH-3T3 cells (do not express EGFR); settings: NIH-3T3, 2 hours, flow cytometer; non-specific inflow
Experimental: Thereafter, the cells were washed with a buffer solution and the targeting ability to each type of cell was analyzed by a flow cytometer.

| Substance | cytotoxicity [1] | cytotoxicity [2] | toxicity [1] | toxicity [2] | further results |
| --- | --- | --- | --- | --- | --- |
| ramucirumab-maleimide-polyethylene glycol 6K [RAM-Mal-PEG6K, reference compound] | non-toxic | non-toxic |  |  |  |
| avelumab-succinyl-Pluronic F127 [AVE-Suc-PF127] |  |  |  |  | cytotoxicity compared to avelumab antibody alone (AVE) or AVE-Suc-PEG2K/PEG5K [3]: greater increase in cytotoxicity; cytotoxicity compared to avelumab antibody alone (AVE) or AVE-Suc-PEG2K/PEG5K [4]: greater increase in cytotoxicity |
| maleimide-Pluronic F68 [Mal-PF68] |  |  |  |  | cytotoxicity [5]: non-cytotoxic |
| maleimide-polyethylene glycol 2K-chlorin e6 [Mal-PEG2K-Ce6, reference compound] |  |  |  |  | fluorescence signals compared to CTX-Mal-PF68-Ce6 or CTX-Mal-PEG2K-Ce6 treatment group [6]: increased |
| avelumab-maleimide-Pluronic F68 [AVE-Mal-PF68] |  |  | non-toxic | non-toxic |  |
| ramucirumab-maleimide-Pluronic F68 [RAM-Mal-PF68] | non-toxic | non-toxic |  |  |  |
| ramucirumab-maleimide-Pluronic F127 [RAM-Mal-PF127] | non-toxic | non-toxic |  |  |  |
| avelumab-maleimide-Pluronic F127 [AVE-Mal-PF127] |  |  | non-toxic | non-toxic |  |
| avelumab-maleimide-polyethylene glycol 2K [AVE-Mal-PEG2K, reference compound] |  |  | non-toxic | non-toxic |  |
| avelumab-maleimide-polyethylene glycol 6K [AVE-Mal-PEG6K, reference compound] |  |  | non-toxic | non-toxic |  |
| ramucirumab-maleimide-polyethylene glycol 2K [RAM-Mal-PEG2K, reference compound] | non-toxic | non-toxic |  |  |  |
| maleimide-Pluronic F68-chlorin e6 [Mal-PF68-Ce6] |  |  |  |  | fluorescence signals compared to CTX-Mal-PF68-Ce6 or CTX-Mal-PEG2K-Ce6 treatment group [6]: increased |
| avelumab-succinyl-Pluronic F68 [AVE-Suc-PF68] |  |  |  |  | cytotoxicity compared to avelumab antibody alone (AVE) or AVE-Suc-PEG2K/PEG5K [3]: greater increase in cytotoxicity; cytotoxicity compared to avelumab antibody alone (AVE) or AVE-Suc-PEG2K/PEG5K [4]: greater increase in cytotoxicity |
